Experiment [1] has as its target T1, β-catenin (UniProt P35222 134-665, limits assumed, biotinylated in the SPR and plate assays).
T1 sequence (looked up): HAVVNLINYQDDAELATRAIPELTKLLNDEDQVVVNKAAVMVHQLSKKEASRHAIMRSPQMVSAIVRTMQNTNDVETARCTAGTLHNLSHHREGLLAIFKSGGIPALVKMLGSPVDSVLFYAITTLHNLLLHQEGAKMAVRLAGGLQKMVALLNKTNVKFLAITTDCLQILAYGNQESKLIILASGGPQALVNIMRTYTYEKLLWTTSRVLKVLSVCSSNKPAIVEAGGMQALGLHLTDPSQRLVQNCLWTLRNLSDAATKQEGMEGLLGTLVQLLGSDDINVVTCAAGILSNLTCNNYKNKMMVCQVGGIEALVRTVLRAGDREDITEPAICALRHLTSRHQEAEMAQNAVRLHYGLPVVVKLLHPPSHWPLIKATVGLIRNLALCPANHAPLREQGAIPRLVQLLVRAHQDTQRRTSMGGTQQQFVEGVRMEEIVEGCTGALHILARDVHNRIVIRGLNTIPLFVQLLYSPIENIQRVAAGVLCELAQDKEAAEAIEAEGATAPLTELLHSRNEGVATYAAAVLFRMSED
The experiment is described as follows: cell-based or functional assay.

The target in experiment [2] is T2, β-catenin in mouse endometriosis lesions (mouse, UniProt Q02248 2-781).
T2 construct: Endogenous protein in fixed tissue sections; also called cytoplasmic β-catenin
T2 sequence (looked up): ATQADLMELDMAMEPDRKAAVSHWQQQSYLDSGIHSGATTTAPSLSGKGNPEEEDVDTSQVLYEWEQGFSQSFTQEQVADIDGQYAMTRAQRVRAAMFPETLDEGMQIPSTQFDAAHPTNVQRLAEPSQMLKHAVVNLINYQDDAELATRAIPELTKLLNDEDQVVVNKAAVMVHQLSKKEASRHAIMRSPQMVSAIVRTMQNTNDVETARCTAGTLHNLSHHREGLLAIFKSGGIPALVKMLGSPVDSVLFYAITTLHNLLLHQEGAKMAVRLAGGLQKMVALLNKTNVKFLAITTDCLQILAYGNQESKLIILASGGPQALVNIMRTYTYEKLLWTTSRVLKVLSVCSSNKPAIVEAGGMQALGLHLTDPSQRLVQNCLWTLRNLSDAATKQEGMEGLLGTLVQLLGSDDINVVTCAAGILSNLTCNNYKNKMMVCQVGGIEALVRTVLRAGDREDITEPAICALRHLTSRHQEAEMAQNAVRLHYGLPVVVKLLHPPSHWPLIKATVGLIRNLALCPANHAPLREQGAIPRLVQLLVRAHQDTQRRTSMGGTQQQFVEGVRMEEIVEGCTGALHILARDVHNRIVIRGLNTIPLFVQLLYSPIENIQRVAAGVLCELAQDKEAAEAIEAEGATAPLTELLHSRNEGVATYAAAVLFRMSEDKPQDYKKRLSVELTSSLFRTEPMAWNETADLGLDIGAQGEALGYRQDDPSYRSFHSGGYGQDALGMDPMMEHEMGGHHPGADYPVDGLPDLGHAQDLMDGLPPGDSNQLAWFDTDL
The experiment in a line: immunofluorescence co-localisation in mouse lesions.
Experimental: Endometriosis was established in a mouse model of disease. Mice were allowed to establish endometriosis for 3 weeks. […] To assess the localization of the peptides and β-catenin, lesions from the endometriosis mouse model were assessed. On the last day of treatment, in order to visualize the peptide localization to the lesion(s), mice were dosed with a biotinylated tagged peptide therapeutic or control. Mice were euthanized, lesions were removed, and fixed in formalin for histology and immunohistochemistry. […] Immunohistochemical negative controls were performed on lesion sections from all treatment groups using IgG non-specific antibodies (Rabbit-IgG, AbCam 1:100).

Here are results for one molecule from patent publication US20260098059A1 (ENDOMET BIOSCIENCES, published 2026).

[ ]: non-standard residue; d: D form. The star is where a group is joined. NMeW = CN[C@@H](Cc1c[nH]c2ccccc12)C(=O)O; Stearoyl = CCCCCCCCCCCCCCCCCC(=O)*; αMeV = CC(C)[C@](C)(N)C(=O)O; αMeS = C[C@](N)(CO)C(=O)O A value given as a limit tells only on which side of the number the result lay.

In the case of Stearoyl-W[NMeW]E[αMeS]ILDEH[αMeV]QRVW-OH (393 used) [Peptide 4 (SEQ ID NO: 393/500)], in experiment [1], the “Proliferation IC50, Endo cells” value is 5 µM; the “Proliferation IC50, Wnt dependent cells” value was determined as 1.7 µM; the “Wnt Reporter EC50” value is at most 7.5 µM. The binding result in experiment [2] is “binds”.
